Data from PMC2955445 (Journal of the American Chemical Society, 2010).
Like-named read-outs stand apart in the source and are kept apart here.

B1: Enzyme I (EI), full length (residues 1-575), from E. coli (enzyme)
chain: not shown
B2: histidine phosphocarrier protein HPr (natural protein)
chain: not shown

Assays:
[1] = target: the molecule itself; assay: AUC
[2] = target: B1; assay: ITC
[3] = target: B1; assay: ITC; remark: listed apart in the source

Row | Binder | stoichiometry N [1] | Kd [2] [µM] | Kd [3] [µM]
1 | B1 | 2 | – | –
2 | B2 | – | 21 ± 1.1 | 6.8 ± 1.8
